Source: patent publication US9701713B2, “Compositions and methods for introduction of macromolecules into cells” (The Regents of the University of Colorado, a body corporate, priority 2011, dated 2017)

B1: αB crystallin: recombinant human αB-crystallin (HSPB5) without transduction peptide, used as comparator (protein)
chain: MDIAIHHPWIRRPFFPFHSPSRLFDQFFGEHLLESDLFPTSTSLSPFYLRPPSFLRAPSWFDTGLSEMRLEKDRFSVNLDVKHFSPEELKVKVLGDVIEVHGKHEERQDEHGFISREFHRKYRIPADVDPLTITSSLSSDGVLTVNGPRKQVSGPERTIPITREEKPAVTAAPKK
B2: TAT-αB crystallin: αB crystallin fused to the TAT cell-penetrating peptide (GRKKRRQRRRPQ) of human immunodeficiency virus (protein)
chain: GRKKRRQRRRPQDIAIHHPWIRRPFFPFHSPSRLFDQFFGEHLLESDLFPTSTSLSPFYLRPPSFLRAPSWFDTGLSEMRLEKDRFSVNLDVKHFSPEELKVKVLGDVIEVHGKHEERQDEHGFISREFHRKYRIPADVDPLTITSSLSSDGVLTVNGPRKQVSGPERTIPITREEKPAVTAAPKK

Tests used:
P23H rhodopsin = biological target: T1, P23H rhodopsin (Homo sapiens, UniProt P08100, P23H); experiment: Cell model of aggregation-prone P23H rhodopsin; type: cell-based; conditions: aggregation-prone mutant P23H rhodopsin
T1 construct: expressed in transfected cells
Excerpt: As shown, α crystallin prevents aggregation of the aggregation-prone mutant of rhodpsin, P23H rhodopsin.
This mutation is the cause of the major form of retinitis pigmentosa in humans.

[1] = tested on: human lens epithelial cells (HLE B3); experiment: Uptake of Alexa Fluor 488 labeled crystallins into human lens epithelial cells; type: cell-based; conditions: Alexa Fluor 488 label, equal amounts of protein
Experimental: Since in vitro properties of alpha crystallin were unaffected by the addition of the NTD peptide, the ability of the NTD tag to enhance uptake of client proteins into living cells was investigated. To monitor cell uptake, wild type and NTD tagged crystallins were labeled with Alexa Fluor 488, a small reporter molecule. Equal amounts of protein were added to separate tissue culture plates containing human lens epithelial cells (HLE B3) and analyzed for their uptake into cells. At various times after addition of the protein to the cell media, cells were fixed and analyzed by fluorescent microscopy for cellular uptake of the labeled proteins. […] (See FIG. 1 and FIG. 6).
Further, αA- and αB-crystallins with and without the NTD tag were fluorescently-labeled using the fluorescent reporter molecule Alexa Fluor 488, and were incubated with human lens epithelial cells (HLE B3) and human embryonic kidney cells (HEK293). Time-dependent uptake was measured by fluorescent microscopy. At various times after addition of the protein to the cell media, cells were fixed and analyzed by fluorescent microscopy for cellular uptake of the labeled proteins.

lysozyme = experiment: Chaperone-like activity: suppression of chemically-induced lysozyme aggregation; type: biochemical; conditions: lysozyme with dithiothreitol at 37° C.
Excerpt: The “Relative Absorbance (360 nm)” of lysozyme increases over time under assay conditions. The absorbance increase is an index of protein aggregation. A reduction in the slope of absorbance increase corresponds to inhibition of lysozyme aggregation.
Recombinant human αA- and αB-crystallins were modified by addition of putative transduction sequences at their N- or C-termini. These proteins were expressed in E. coli and isolated to apparent homogeneity using previously published methods (Cobb et al. 2000). Purified proteins were analyzed by size exclusion chromatography to determine size heterogeneity. CLA was assessed by measuring the ability of candidate proteins to suppress chemically-induced aggregation of substrate protein lysozyme in the presence of dithiothreitol at 37° C.

human lens cells = experiment: Cell penetration and retention of AlexaFluor labeled crystallin in human lens cells over 3 days; type: cell-based; conditions: 60 minutes exposure
Experimental: αB crystallin, with or without fusion to the NTD peptide, was labeled with the small molecular weight fluorescent molecule AlexaFluor. It was then combined with tissue culture nutrient media and applied to a culture plate containing human lens cells. After 60 minutes, the culture media were removed, and replaced with culture media without crystallins. Entry and distribution of crystallins was measured over 3 days by observing fluorescence (green). Cell nuclei were stained with Hoechst dye (blue).

Molecule	fluorescence of P23H rhodopsin (prevention of aggregation) (P23H rhodopsin)	intracellular fluorescence (cellular uptake) [1]	chaperone-like activity (suppression of lysozyme aggregation, absorbance 360 nm) (lysozyme)	intracellular crystallin fluorescence (human lens cells; after 48 hours)	intracellular crystallin fluorescence (human lens cells; after 72 hours)
alpha crystallin: alpha crystallin with chaperone-like activity applied to cells; b52 and b54 name it αA crystallin	prevented the loss of fluorescence	–	–	–	–
B1	–	comparatively little intracellular fluorescence	effectively suppress lysozyme aggregation	substantially lost	virtually undetectable
B2	–	–	does not suppress lysozyme aggregation	–	–
